Key:
[1] = target: T1, recombinant His-tagged 6xEMPD (6 times repeated EMPD of mouse mIgE) (Mus musculus (mouse), membrane IgE …); assay: ELISA
T1 chain: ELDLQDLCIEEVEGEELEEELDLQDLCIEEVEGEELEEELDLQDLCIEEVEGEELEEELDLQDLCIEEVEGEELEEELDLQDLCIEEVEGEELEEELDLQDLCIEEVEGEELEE

[2] = target: T1, recombinant His-tagged 6xEMPD (6 times …); assay: SPR

B1: mAbA9, mouse monoclonal anti-mouse EMPD antibody of γ1 isotype (antibody, V domains shown)
VH: EVQLVESGGGLVQPGGSLRLSCATSGFTFTDYYMTWVRQPPGKALEWLGFIRNKANGYTTEYSASVKGRFTVSRDNSQSILYLQMNTLRAEDSATYYCASPIYYGSPSWLWTYWGQGTSVTVSS
VL: QIVLTQSPAIMAASLGQKVTMTCSASSSVSSSYLHWYQQKSGASPKPLIHRTSNLASGVPARFSGSGSGTSYSLTISSVEAEDDATYYCQQWSGYPLTFGAGTKLELK
- % competition at 10-fold molar excess of 6xEMPD [1]: 43%
- Kd [2]: 7.4 nM

Reference: paper PMC2959155 (Journal of immunology (Baltimore, Md. : 1950), 2008)
